Experimental data from patent US20160060347A1 (MorphoSys, published 2016).

How the values were obtained:
[1] = target: T1, N-terminal peptide aa1-48, BSA-coupled (human; bovine, coupled to carrier protein BSA; C-terminal cysteine introduced to enable coupling); experiment: ELISA, coated peptide-BSA, IgG
T1 construct: also called CXCR2 aa1-48 BSA
Description: (§1) 384-well Maxisorp plates (Nunc; Cat. #460518) were coated with respective CXCR2 and control peptides coupled either to BSA or Transferrin (TRF) at 1-5 μg/mL and incubated o/n at 4° C. […] After three washing steps, antibodies were added at 5-10 μg/mL and titrated in some experiments. Antibodies were incubated 1 h at room temperature and plates were subsequently washed. Binding of anti-CXCR2 antibodies was detected by using alkaline phosphatase-conjugated anti-human IgG, (Dianova, Cat #109-055-097). AttoPhos fluorescence substrate (Roche, Cat #1484281) was added according to instructions of the manufacturer and fluorescence was measured (excitation at 430 nm, emission at 535 nm) using a microplate reader.

[2] = target: T2, hu_CXCR2_N-term (1-17)-BSA (human; bovine, coupled to carrier protein BSA; C-terminal cysteine introduced to enable coupling); experiment: ELISA, coated peptide-BSA, IgG
T2 construct: Synthetic linear peptide chemically coupled to the carrier; also called CXCR2_aa1-17_BSA; CXCR2 aa1-17 BSA
T2 sequence (P02769 25-607 limits assumed): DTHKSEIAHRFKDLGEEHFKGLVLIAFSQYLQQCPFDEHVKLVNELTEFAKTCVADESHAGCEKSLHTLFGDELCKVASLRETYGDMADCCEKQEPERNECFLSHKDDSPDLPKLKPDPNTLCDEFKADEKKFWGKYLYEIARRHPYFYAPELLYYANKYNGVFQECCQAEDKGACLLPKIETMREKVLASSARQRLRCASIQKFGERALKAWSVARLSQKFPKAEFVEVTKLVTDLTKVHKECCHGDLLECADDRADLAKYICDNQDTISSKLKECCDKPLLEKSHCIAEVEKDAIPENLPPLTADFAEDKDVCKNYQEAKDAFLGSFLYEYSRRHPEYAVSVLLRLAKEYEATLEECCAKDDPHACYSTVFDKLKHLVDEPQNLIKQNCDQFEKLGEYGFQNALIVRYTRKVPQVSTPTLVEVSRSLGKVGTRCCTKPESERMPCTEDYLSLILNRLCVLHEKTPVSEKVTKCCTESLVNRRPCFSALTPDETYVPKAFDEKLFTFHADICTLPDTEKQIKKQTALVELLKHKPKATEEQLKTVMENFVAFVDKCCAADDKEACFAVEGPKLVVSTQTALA
Description: as §1

[3] = target: T3, ECL3 peptide aa273-295, BSA-coupled (human; bovine, coupled to carrier protein BSA; C-terminal cysteine introduced to enable coupling); experiment: ELISA, coated peptide-BSA, IgG
T3 construct: also called CXCR2 aa273-295 BSA; peptides representing the extracellular domain 3
T3 sequence (peptide, as listed by the source limits assumed, chain 1 of 2): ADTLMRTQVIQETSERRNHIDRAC
T3 sequence (P02769 25-607 limits assumed, chain 2 of 2): as the sequence (P02769 25-607 limits assumed) above
Description: as §1

human CXCR2 [4] = target: T4, human CXCR2 (human, UniProt P25025 1-360); experiment: FACS, CXCR2 CHO Flp-In cells, IgG
T4 construct: Expressed on Flp-In CHO cells (FACS, Fab-ZAP, ADCC, CDC) or on bought PathHunter CHO cells (beta-arrestin assay); the construct in the PathHunter cells is not described; also called chemokine receptor CXCR2; CXCR2 CHO Flp-In cells
T4 sequence: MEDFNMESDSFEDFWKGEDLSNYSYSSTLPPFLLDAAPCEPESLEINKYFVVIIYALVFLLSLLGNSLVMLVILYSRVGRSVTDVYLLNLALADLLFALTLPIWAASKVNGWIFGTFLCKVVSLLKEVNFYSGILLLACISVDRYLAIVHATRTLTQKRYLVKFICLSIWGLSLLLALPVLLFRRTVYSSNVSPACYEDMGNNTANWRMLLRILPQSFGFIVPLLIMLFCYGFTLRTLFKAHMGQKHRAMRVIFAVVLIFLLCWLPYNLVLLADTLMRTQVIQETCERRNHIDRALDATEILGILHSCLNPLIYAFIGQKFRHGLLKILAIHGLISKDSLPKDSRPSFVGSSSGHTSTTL
Description: (§2) Human CXCR2-expressing Flp-In™ CHO cells were harvested at ˜80% confluence washed once with PBS (Gibco, Cat #14190-094) and detached using Versene (Invitrogen, Cat #15040-033). Subsequently, cells were counted and centrifuged at 250×g for 5 min at 4° C. Afterwards, cells were diluted in Superblock (Thermo Fisher Perbio Science, Cat #37515) to a cell concentration of 2E+05-1E+06/mL and 100 μL/well were transferred to 96-well microtiter plate (Nunc, Cat#163320). Cells were once centrifuged, supernatant discarded and antibodies added at 1 μg/mL (unless stated otherwise), incubated for 1 h at 4° C. and washed twice with FACS buffer (PBS/3% FCS/0.02% NaN3). Binding of anti-CXCR2 antibodies was detected by incubation of Phycoerythrin-conjugated anti-human IgG (Dianova, Cat #109-116-097) for 1 h at 4° C. Samples were subsequently measured using FACS Array (Becton Dickinson).

human CXCR2 [5] = target: T4, human CXCR2; experiment: FACS, CXCR2 CHO Flp-In cells, IgG1
Description: as §2

[6] = target: T1, N-terminal peptide aa1-48, BSA-coupled; experiment: ELISA, coated peptide-BSA, IgG1
Description: as §1

[7] = target: T2, hu_CXCR2_N-term (1-17)-BSA; experiment: ELISA, coated peptide-BSA, IgG1
Description: as §1

[8] = target: T3, ECL3 peptide aa273-295, BSA-coupled; experiment: ELISA, coated peptide-BSA, IgG1
Description: as §1

Measured: binding result

T1 sequence (P02769 25-607 limits assumed): as the sequence (P02769 25-607 limits assumed) above

B1: CX2-Mab #8 (antibody, IgG1, V domains shown)
VH: QVQLVQSGAEVKKPGESLKISCKGSGYSFTNYWIAWVRQMPGKGLEWMGIIDPSNSDTRYSPSFQGQVTISADKSISTAYLQWSSLKASDTAMYYCARGRYYGFFDYWGQGTLVTVSS
VL: DIVLTQPPSVSGAPGQRVTISCSGSSSNIGSTYVSWYQQLPGTAPKLLIYRNNNRPSGVPDRFSGSKSGTSASLAITGLQAEDEADYYCQVRALGTSSVVFGGGTKLTVLG
binds: [1] | [2] | [3] | human CXCR2 [4]

B2: CX2-Mab #7 (antibody, IgG1, V domains shown)
VH: QVQLLESGGGLVQPGGSLRLSCAASGFTFSRYWMSWVRQAPGKGLEWVSVISYSGSETYYADSVKGRFTISRDNSKNTLYLQMNSLRAEDTAVYYCARGRAYGYFDPWGQGTLVTVSS
VL: DIVLTQPPSVSGAPGQRVTISCSGSSSNIGKKTVSWYQQLPGTAPKLLIYRNNQRPSGVPDRFSGSKSGTSASLAITGLQAEDEADYYCQSTDSTTEIVFGGGTKLTVLG
binds: [1] | [2] | [3] | human CXCR2 [4]

B3: CX2-Mab #1.2 (antibody, IgG1, V domains shown)
VH: QVQLVQSGAEVKKPGSSVKVSCKASGGTFSSYAISWVRQAPGQGLEWMGGIIPIVGEAKYAQKFQGRVTITADESTSTAYMELSSLRSEDTAVYYCARDSSGYDGYYAFAYWGQGTQVTVSS
VL: DIVLTQPPSVSGAPGQRGTISCSGSSSNIGSSSVNWYQQLPGTAPKLLIYRNNQRPSGVPDRFSGSKSGTSASLAITGLQAEDEADYYCATADQRGIVFGGGTKLTVLG
binds: human CXCR2 [5] | [6] | [7] | [8]
